One assay addresses T1, wild-type human IL-2 (human, UniProt P60568 21-153).
T1 construct: also called hIL-2
As to the kind of experiment: BIACORE.

The target in a further assay is T2, cynomolgus monkey IL-2 (cynomolgus monkey, UniProt Q29615 21-154).
T2 construct: also called cyno IL-2
As to the kind of experiment: BIACORE. A general note: Surface plasmon resonance follows binding to a sensor surface in real time, without labels.

For assay [1], the target named is T3, CD25 (IL-2Rα) on the surface of T cells (human, UniProt P01589 22-272).
T3 construct: whole, on cells; also called cell surface CD25
T3 sequence (looked up): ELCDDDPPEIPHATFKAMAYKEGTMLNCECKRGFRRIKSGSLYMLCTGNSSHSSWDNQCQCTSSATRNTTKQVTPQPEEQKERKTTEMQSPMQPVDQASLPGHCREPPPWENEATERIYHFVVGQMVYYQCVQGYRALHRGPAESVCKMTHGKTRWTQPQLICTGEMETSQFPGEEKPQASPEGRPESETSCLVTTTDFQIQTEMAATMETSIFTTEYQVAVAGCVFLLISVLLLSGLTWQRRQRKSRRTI
Kind of assay: flow cytometry, binding to CD25 on the surface of activated T cells.

Assay [2] has as its target T3, CD25 (IL-2Rα) on the surface of T cells. As to the kind of experiment: binding to cell surface CD25 (method not described).

B1: 9B10 (antibody, V domains shown)
VH: QVQLVESGGGVVQPGRSLRLSCAASGFTFSSYAMHWVRQAPGKGLEWVAVIWYDGINKYYADSVKGRFTISRDNSKNTLYLQMNSLRAEDTAVYYCARGSYYDSSGYYFGEDFDYWGQGTLVTVSS
VL: DIVMTQTPLSSPVTLGQPASISCRSSHNLLHSDGNTYLSWLQQRPGQPPRLLIYEISNRFSGVPDRFSGSGAGTDFTLKISRVEAEDVGVYYCMQVTQFPTFGGGTKVEIK
The term Kd denotes the equilibrium constant for the complex coming apart. Consider B1, for which the Kd is approximately 110 pM with wild-type human IL-2 and approximately 160 pM with cynomolgus monkey IL-2.

B2: 18F3 (antibody, V domains shown)
VH: QVQLQESGPGLVKPSQTLSLTCTVSGGSISSGGYYWSWIRQHPGKGLEWIGYIYYSGSTDYNPSLKSRGIISGDTSKNQFSLKLNSVTAADTAVYYCAREGRFGELGSYYFDYWGQGTLVTVSS
VL: SYELTQPPSVSVSPGQTARIACSGDALPRKFAYWYQQKSGQAPVLVISEDSRRPSGIPERFSGSSSGTMATLTISGAQVEDEADYYCFSTDSSANHRVFGGGTKLTVL
As for B2, the Kd with wild-type human IL-2 and in the assay with cynomolgus monkey IL-2 was approximately 50 pM throughout.

B3: 2H11 (antibody, V domains shown)
VH: EVQLVQSGAEVKKPGESLKISCKGSGYNFTTYWIGWVRQMPGKGLEWMGIIYPGDSDTRYSPSFQGQVTISADKSINTAYLQWSSLKASDTAIYYCARDTGYFDYWGQGTLVTVSS
VL: SYELTQPPSVSVSPGQTARITCSGDALPRKFAYWYQQKSGQAPVLVIYEDRKRPSGIPERFSGSSSGTMATLTISGAQVEDEADYYCYSTDRSGDHVVFGGGTKLTVL
Consider B3, for which the values for the Kd with wild-type human IL-2 and in the assay with cynomolgus monkey IL-2 were approximately 30 pM and approximately 8 pM, respectively.

B4: 9D6 (antibody, V domains shown)
VH: EVQLVQSGAEVKKPGESLKISCKGSGYRFTSYWIGWVRQMPGKGLEWMGIIHPGDSDTRYSPSFQGQVTISADKSISTAYLQWSSLKASDTAIYYCTRQGRSFYYYGMDVWGQGTTVTVSS
VL: DIVMTQTPLSLPVTPGEPASISCRSSQSLLDSDEGNTYLDWYLQKPGQSPQLLIYTLSYRASGVPDRFSGTGSDTDFTLKISRVEAEDVGVYYCMQRIEFPLTFGGGTKVEIK
For B4, the dissociation constant Kd with wild-type human IL-2 was approximately 41 pM; with cynomolgus monkey IL-2, approximately 16 pM.

B5: 14G7 (antibody, V domains shown)
VH: EVQLVQSGAEVKKPGESLKISCKGSGYSFTDYWIGWVRQMPGKGLEWMGIIYPYDSDTRYSPSFQGQVTLSADKSISTAYLRWSSLKASDTAMYYCARHRGGRSYYYGMDVWGQGTTVTVSS
VL: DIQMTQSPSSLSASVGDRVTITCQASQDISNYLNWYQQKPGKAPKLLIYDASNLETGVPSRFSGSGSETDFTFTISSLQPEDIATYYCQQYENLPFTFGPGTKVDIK
For B5, the results for the Kd in the assay with wild-type human IL-2 and in the assay with cynomolgus monkey IL-2 were approximately 280 pM and approximately 130 pM, respectively.

B6: 26C12 (antibody, V domains shown)
VH: EVQLVQSGAEVKKPGESLKISCKGSGYRFTSYWIGWVRQMPGKGLEWMGIIFPGDSDTRYSPSFQGQVTISADKSITTAYLQWSSLKASDTAIYYCARHGHGSSSGRTYYYGLDVWGQGTTVTVSS
VL: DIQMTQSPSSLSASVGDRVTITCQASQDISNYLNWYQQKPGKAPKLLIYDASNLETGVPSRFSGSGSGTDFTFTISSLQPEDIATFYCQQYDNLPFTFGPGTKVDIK
On to B6, for which the figures for the Kd with wild-type human IL-2 and in the assay with cynomolgus monkey IL-2 were approximately 270 pM and approximately 130 pM, respectively.

B7: HaMut1D (V69A, Q74P, N88D, C125A) (ligand)
chain: APTSSSTKKTQLQLEHLLLDLQMILNGINNYKNPKLTRMLTFKFYMPKKATELKHLQCLEEELKPLEEALNLAPSKNFHLRPRDLISDINVIVLELKGSETTFMCEYADETATIVEFLNRWITFAQSIISTLT
notes: not shown: C-terminal FLAG and poly-His tag
With B7, the dissociation constant Kd in assay [1] was approximately 2000 pM.

B8: HaMut4D (T37A, V69A, Q74P, N88D, C125A) (ligand)
chain: APTSSSTKKTQLQLEHLLLDLQMILNGINNYKNPKLARMLTFKFYMPKKATELKHLQCLEEELKPLEEALNLAPSKNFHLRPRDLISDINVIVLELKGSETTFMCEYADETATIVEFLNRWITFAQSIISTLT
notes: human IL-2 mutein; not shown: C-terminal FLAG and poly-His tag
As to B8, in assay [1], the binding result was “binds”.

B9: HaMut2D (N30S, V69A, Q74P, N88D, C125A) (ligand)
chain: APTSSSTKKTQLQLEHLLLDLQMILNGINSYKNPKLTRMLTFKFYMPKKATELKHLQCLEEELKPLEEALNLAPSKNFHLRPRDLISDINVIVLELKGSETTFMCEYADETATIVEFLNRWITFAQSIISTLT
notes: as for B8
For B9, the binding result in assay [1] is reported as “binds”.

B10: HaMut3D (K35R, V69A, Q74P, N88D, C125A) (ligand)
chain: APTSSSTKKTQLQLEHLLLDLQMILNGINNYKNPRLTRMLTFKFYMPKKATELKHLQCLEEELKPLEEALNLAPSKNFHLRPRDLISDINVIVLELKGSETTFMCEYADETATIVEFLNRWITFAQSIISTLT
notes: as for B8
For the molecule B10, in assay [1], the binding result is recorded as “binds”.

B11: HaMut7D (N71R, V69A, Q74P, N88D, C125A) (ligand)
chain: APTSSSTKKTQLQLEHLLLDLQMILNGINNYKNPKLTRMLTFKFYMPKKATELKHLQCLEEELKPLEEALRLAPSKNFHLRPRDLISDINVIVLELKGSETTFMCEYADETATIVEFLNRWITFAQSIISTLT
notes: as for B8
In turn, B11 displayed a Kd in assay [1] of approximately 200 pM.

B12: HaMut8D (K35R, K48E, E68D, N88D, C125A) (ligand)
chain: APTSSSTKKTQLQLEHLLLDLQMILNGINNYKNPRLTRMLTFKFYMPEKATELKHLQCLEEELKPLEDVLNLAQSKNFHLRPRDLISDINVIVLELKGSETTFMCEYADETATIVEFLNRWITFAQSIISTLT
notes: as for B8
For the molecule B12, the binding result in assay [1] is on record as “binds”.

B13: HaMut6D (E68D, V69A, Q74P, N88D, C125A) (ligand)
chain: APTSSSTKKTQLQLEHLLLDLQMILNGINNYKNPKLTRMLTFKFYMPKKATELKHLQCLEEELKPLEDALNLAPSKNFHLRPRDLISDINVIVLELKGSETTFMCEYADETATIVEFLNRWITFAQSIISTLT
notes: as for B8
For B13, the binding result in assay [1] is recorded as “binds”.

B14: HaMut5D (K48E, V69A, Q74P, N88D, C125A) (ligand)
chain: APTSSSTKKTQLQLEHLLLDLQMILNGINNYKNPKLTRMLTFKFYMPEKATELKHLQCLEEELKPLEEALNLAPSKNFHLRPRDLISDINVIVLELKGSETTFMCEYADETATIVEFLNRWITFAQSIISTLT
notes: as for B8
As for B14, in assay [1], the binding result was “binds”.

B15: 2C3 (antibody, V domains shown)
VH: EVQLVQSGAEVKKPGESLKISCKGSGYRFTSYWIGWVRQMPGKGLEWMGIIYPGDSDTRYSPSFQGQVTISADKSISAAYLQWSSLKASDTAMYYCARQQVAGMLDYWGQGTLVTVSS
VL: EIVLTQSPGTLSLSPGERATLSCRASQSFSSSYLVWYQQKPGQAPRLLIYGASSRATGIPDRFGGSGSGTDFTLTISRLEPEDFAVYYCQQYGSSPLTFGGGTKVEIK
In turn, B15 yielded a Kd with cynomolgus monkey IL-2 of approximately 1.2 pM.

B16: 26H7 (antibody, V domains shown)
VH: EVQLVQSGAEVKKPGESLKISCKGSGYRFTNYWIGWVRQMPGKGLEWMGIIYPGDSDTKYSPSFQGQVTISADKSISTAYLQWSSLKASDTAMYYCARHGGYSGRSYYYGMDVWGQGTAVTVSS
VL: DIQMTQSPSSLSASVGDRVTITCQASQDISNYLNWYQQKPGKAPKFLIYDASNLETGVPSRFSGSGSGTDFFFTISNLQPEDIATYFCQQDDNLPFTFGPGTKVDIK
As for B16, the figures for the Kd with wild-type human IL-2 and with cynomolgus monkey IL-2 were approximately 1.3 pM and approximately 310 pM, respectively.

B17: haD5 fused to the amino terminus of Fc, separated by a GGGGS linker (Fc fusion)
chain: APTSSSTKKTQLQLQNLLLDLQMILNGISNHKNPRLARMLTFKFYMPEKATELKHLQCLEEELKPLEEALRLAPSKNFHLRPRDLISDINVIVLELKGSETTFMCEYADETATIVEFLNRWITFSQSIISTLTGGGGS
notes: IL-2 mutein N-terminal of the Fc; dimer by the Fc; also called haD5 Fc fusion; not shown: IgG1 Fc with an effector function mutation (A327Q, L234A+L235A or N297G)
Take B17: the binding result in assay [2] is given as “binds”.

B18: 14D7 (antibody, V domains shown)
VH: QVQLQESGPGLVKPSQTLSLTCTVSGGSISSGGYYWNWIRQHPGKGLEWIGYIYYSGNTHYNPSLKSRVTISVDTSKNQFSLKLSSVIAADTAVYYCARDWGRDAFDIWGQGTMVTVSS
VL: DIQMTQSPSSLSASVGDRVTITCRASQTISSYLNWYQQKPGKAPKVLIYAASSFQSGVPSRFSGSGSGTDFTLTISSLQPEDFATYYCQQSHYIPRTFGQGTKVEIK
On to B18, for which the figures for the Kd with wild-type human IL-2 and with cynomolgus monkey IL-2 were approximately 300 pM and approximately 140 pM, respectively.

For the origin of these results see patent publication US20200024319A1 (Amgen, published 2020).
